From patent US4446316A, “Dextran derivative of fibrinolysin” (Vsesojuzny Kardiologichesky Nauchny Tsentr, priority 1980, dated 1984)
“Also recorded” adds a separate entry of the source.

Experiments:
[1] = system: Rats; test: Toxicity upon intravenous injection in rats; type: in vivo; settings: i.v.
Excerpt: (§1) The toxicity of the fibrinolysin derivative according to the present invention was studied on white mice, rats, rabbits and dogs.
(§2) Toxicity of the fibrinolysin derivative of the invention
(§3) for animals of different species upon intravenous injection

[2] = system: thromboses of a dog's femoral vein or artery; test: Thrombolytic activity on model of thrombosis of dog's femoral vein (lysis of thrombus); type: in vivo; settings: dogs, femoral vein, 600 units/kg i.v., n=3
Excerpt: (§4) The study of the specific (thrombolytic) effect of the polysaccharide fibrinolysin derivative according to the present invention has been studied on models of thromboses of a rabbit's jugular vein and a dog's femoral vein or artery. Thrombi of 1 to 2.5 cm size were formed in the above-mentioned animals which fully obliterated the cross-section of a blood vessel. The administration of the test preparation at the background of heparin was started one hour after the thrombus formation.
(§5) On the basis of an expected prolonged fibrinolytic effect of the preparation according to the present invention, a test dose of the preparation ranging from 400 to 4,000 units per kg of the bodyweight is dissolved in a physiological solution, 20-30 ml for rabbits and 50-100 ml for dogs, and injected by means of a syringe in a jet-like manner intravenously over 20 minutes, not following the instruction on the use of fibrinolysin (intravenously by the dropwise method at a rate of 10-12 drops per minute).
(§6) The dynamics of the thrombus formation and lysis was observed visually and by palpation during 6 hours of the experiment, after one, two and three days. The angiography and fluorometry were carried out prior to the beginning of the treatment and one day after the administration of the preparation.

[3] = Solubility and hygroscopicity of the preparation; type: physicochemical
[4] = system: white mice, rats, rabbits and dogs; test: Toxicity, general findings in white mice, rats, rabbits and dogs; type: in vivo; settings: for Death of animals: single i.v. dose exceeding the therapeutic dose by 4-5 times
Excerpt: as §1

[5] = system: experimental thrombosis; test: Duration of fibrinolytic effect and effective dose in experimental thrombosis; type: in vivo, rabbits, dogs
Excerpt: as §4, §5, §6

[6] = system: blood coagulation; test: Blood coagulation and bleeding during therapy of experimental thrombosis; type: in vivo, rabbit; settings: during treatment
Excerpt: as §4, §5, §6

[7] = system: thrombin time; test: Thrombin time in dogs with experimental thrombosis; type: in vivo, dog
Excerpt: (§7) The prolonged effect of the fibrinolysin derivative according to the present invention has been studied in experiments on dogs in comparison with the effect of native fibrinolysin.
Variation of thrombin time (in seconds) in dogs with expe-
rimental thrombosis after administration of the fibrinolysin
derivative according to the present invention and native

[8] = system: thromboses of a rabbit's jugular vein; test: Thrombolytic activity on model of thrombosis of rabbit's jugular vein (lysis of thrombus); type: in vivo; settings: rabbits
Excerpt: as §4, §5, §6

[9] = system: Dogs; test: Toxicity upon intravenous injection in dogs; type: in vivo; settings: i.v.
Excerpt: as §1, §2, §3

[10] = system: Rabbits; test: Toxicity upon intravenous injection in rabbits; type: in vivo; settings: i.v.
Excerpt: as §1, §2, §3

[11] = system: euglobulin fraction of dog's plasma; test: Lysis duration of the euglobulin fraction of dog's plasma with experimental thrombosis; type: in vivo
Excerpt: as §7
Variation of lysis duration (in minutes) of the euglobulin
fraction of dog's plasma with experimental thrombosis upon
administration of the fibrinolysin derivative according to
the present invention and native fibrinolysin

[12] = system: Mice; test: Toxicity upon intravenous injection in mice; type: in vivo, white mice; settings: i.v.
Excerpt: as §1, §2, §3

[13] = prior-art product (Kardiologiya, 1977); cited from earlier work
[14] = before administration (baseline)

B1: Fibrinolysin derivative of the invention: fibrinolysin covalently bonded to dextran dialdehyde (molecular mass 20,000 to 110,000), reduced with sodium borohydride (conjugate, UniProt P00747 20-580; P00747 581-810, looked up)
Plasmin heavy chain A: EPLDDYVNTQGASLFSVTKKQLGAGSIEECAAKCEEDEEFTCRAFQYHSKEQQCVIMAENRKSSIIIRMRDVVLFEKKVYLSECKTGNGKNYRGTMSKTKNGITCQKWSSTSPHRPRFSPATHPSEGLEENYCRNPDNDPQGPWCYTTDPEKRYDYCDILECEEECMHCSGENYDGKISKTMSGLECQAWDSQSPHAHGYIPSKFPNKNLKKNYCRNPDRELRPWCFTTDPNKRWELCDIPRCTTPPPSSGPTYQCLKGTGENYRGNVAVTVSGHTCQHWSAQTPHTHNRTPENFPCKNLDENYCRNPDGKRAPWCHTTNSQVRWEYCKIPSCDSSPVSTEQLAPTAPPELTPVVQDCYHGDGQSYRGTSSTTTTGKKCQSWSSMTPHRHQKTPENYPNAGLTMNYCRNPDADKGPWCFTTDPSVRWEYCNLKKCSGTEASVVAPPPVVLLPDVETPSEEDCMFGNGKGYRGKRATTVTGTPCQDWAAQEPHRHSIFTPETNPRAGLEKNYCRNPDGDVGGPWCYTTNPRKLYDYCDVPQCAAPSFDCGKPQVEPKKCPGR
Plasmin light chain B: VVGGCVAHPHSWPWQVSLRTRFGMHFCGGTLISPEWVLTAAHCLEKSPRPSSYKVILGAHQEVNLEPHVQEIEVSRLFLEPTRKDIALLKLSSPAVITDKVIPACLPSPNYVVADRTECFITGWGETQGTFGAGLLKEAQLPVIENKVCNRYEFLNGRVQSTELCAGHLAGGTDSCQGDSGGPLVCFEKDKYILQGVTSWGLGCARPNKPGVYVRVSRFVTWIEGVMRNN
modifications: Plasmin dextran dialdehyde conjugate, borohydride reduced
notes: fibrinolysin covalently bonded to dextran dialdehyde (molecular mass 20,000 to 110,000), reduced with sodium borohydride
LD50 [1]: 4586 un./kg | Toxicity test result (dead/survived, not defined) ([1]; 2000 un/kg): 0/6 | Toxicity test result (dead/survived, not defined) ([1]; 2500 un/kg): 0/6 | Toxicity test result (dead/survived, not defined) ([1]; 3750 un/kg): 2/4 | Toxicity test result (dead/survived, not defined) ([1]; 5000 un/kg): 3/3 | Toxicity test result (dead/survived, not defined) ([1]; 6250 un/kg): 6/0 | Efficiency of the therapy (lysis of thrombus) [2]: full lysis | Solubility in 0.9% isotonic solution of sodium chloride ([3]; 0.9% sodium chloride): readily soluble | Solubility in 95% ethanol ([3]; 95% ethanol): substantially insoluble | Solubility in chloroform ([3]; chloroform): substantially insoluble | Solubility in ether ([3]; ether): substantially insoluble | Hygroscopicity ([3]; lyophilized powder): hygroscopic | Solubility in water ([3]; water): readily soluble | Toxicity ([4]; compared with native fibrinolysin / overall statement, listed as fibrinolysin derivative according to the present invention): low toxicity | Effect on the vessels ([4]; in the test doses): no injuring effect on the vessels | Macro- and microscopic changes in the inner organs ([4]; in the test doses): no macro- and microscopic changes in the inner organs | Effect on the central nervous system and blood pressure ([4]; in therapeutical doses): no effect on the central nervous system and blood pressure | Death of animals ([4]; listed as fibrinolysin derivative according to the present invention): does not result in death of animals | Death of animals ([4]; listed as fibrinolysin derivative of the present invention): does not result in their death | Normalization of changes in the blood clotting system ([5]; after administration): on the second day | Duration of the fibrinolytic effect ([5]; after administration, listed as fibrinolysin derivative according to the present invention): up to two days after administration; also recorded: observed also on the second day | Minimal effective (therapeutical) dose ([5]; single intravenous jet-like infusion): 400 units/kg | Prolongation of the effect as compared to native fibrinolysin ([5]; vs native fibrinolysin): 2-3 times | Bleeding [6]: not accompanied by bleeding | Changes in the third phase of blood coagulation [6]: no sharp changes in the third phase of blood coagulation | Thrombin time ([7]; after 2 hours): 90 s | Thrombin time ([7]; after 1 day): 92 s | Thrombin time ([7]; after 2 days): 210 s | Thrombin time, initial parameter [7, 14]: 35 s | Efficiency of the therapy (lysis of thrombus) ([8]; 400 units/kg i.v., n=7): full lysis | Efficiency of the therapy (lysis of thrombus) ([8]; 600 units/kg i.v.): full lysis | Toxicity test result (dead/survived, not defined) ([9]; 500 un/kg): 0/3 | Toxicity test result (dead/survived, not defined) ([9]; 1000 un/kg): 0/3 | Toxicity test result (dead/survived, not defined) ([9]; 1500 un/kg): 0/1 | LD50 [10]: 1834 un./kg | Toxicity test result (dead/survived, not defined) ([10]; 500 un/kg): 0/6 | Toxicity test result (dead/survived, not defined) ([10]; 1500 un/kg): 2/4 | Toxicity test result (dead/survived, not defined) ([10]; 2000 un/kg): 2/4 | Toxicity test result (dead/survived, not defined) ([10]; 2500 un/kg): 6/0 | Lysis duration of the euglobulin fraction ([11]; after 2 hours): 90 min | Lysis duration of the euglobulin fraction ([11]; after 1 day): 1 min | Lysis duration of the euglobulin fraction ([11]; after 2 days): 10 min | Lysis duration of the euglobulin fraction, initial parameter [11, 14]: 70 min | LD50 [12]: 5000 un./kg | Toxicity test result (dead/survived, not defined) ([12]; 2000 un/kg): 0/6 | Toxicity test result (dead/survived, not defined) ([12]; 2500 un/kg): 0/6 | Toxicity test result (dead/survived, not defined) ([12]; 5000 un/kg): 2/4 | Toxicity test result (dead/survived, not defined) ([12]; 6250 un/kg): 6/0

B2: derivative of fibrinolysin with aldehyde-containing sephadex: fibrinolysin reacted with a modified aldehyde-containing sephadex in a phosphate buffer at 4° C. (conjugate, UniProt P00747 20-580; P00747 581-810, looked up)
Plasmin heavy chain A: EPLDDYVNTQGASLFSVTKKQLGAGSIEECAAKCEEDEEFTCRAFQYHSKEQQCVIMAENRKSSIIIRMRDVVLFEKKVYLSECKTGNGKNYRGTMSKTKNGITCQKWSSTSPHRPRFSPATHPSEGLEENYCRNPDNDPQGPWCYTTDPEKRYDYCDILECEEECMHCSGENYDGKISKTMSGLECQAWDSQSPHAHGYIPSKFPNKNLKKNYCRNPDRELRPWCFTTDPNKRWELCDIPRCTTPPPSSGPTYQCLKGTGENYRGNVAVTVSGHTCQHWSAQTPHTHNRTPENFPCKNLDENYCRNPDGKRAPWCHTTNSQVRWEYCKIPSCDSSPVSTEQLAPTAPPELTPVVQDCYHGDGQSYRGTSSTTTTGKKCQSWSSMTPHRHQKTPENYPNAGLTMNYCRNPDADKGPWCFTTDPSVRWEYCNLKKCSGTEASVVAPPPVVLLPDVETPSEEDCMFGNGKGYRGKRATTVTGTPCQDWAAQEPHRHSIFTPETNPRAGLEKNYCRNPDGDVGGPWCYTTNPRKLYDYCDVPQCAAPSFDCGKPQVEPKKCPGR
Plasmin light chain B: VVGGCVAHPHSWPWQVSLRTRFGMHFCGGTLISPEWVLTAAHCLEKSPRPSSYKVILGAHQEVNLEPHVQEIEVSRLFLEPTRKDIALLKLSSPAVITDKVIPACLPSPNYVVADRTECFITGWGETQGTFGAGLLKEAQLPVIENKVCNRYEFLNGRVQSTELCAGHLAGGTDSCQGDSGGPLVCFEKDKYILQGVTSWGLGCARPNKPGVYVRVSRFVTWIEGVMRNN
modifications: plasmin conjugated to aldehyde-containing Sephadex
Solubility in water and aqueous solutions [13]: not soluble
